In PMC3498451:

Target: HIV-1 Gag-glutathione-S-transferase (GST) fusion protein, wild type (HIV-1)
Experiment: cross-linking + pull-down

B1: 2',3'-cyclic-nucleotide 3'-phosphodiesterase (CNP), human, wild type (natural protein)
chain: MNRGFSRKSHTFLPKIFFRKMSSSGAKDKPELQFPFLQDEDTVATLLECKTLFILRGLPGSGKSTLARVIVDKYRDGTKMVSADAYKITPGARGAFSEEYKRLDEDLAAYCRRRDIRILVLDDTNHERERLEQLFEMADQYQYQVVLVEPKTAWRLDCAQLKEKNQWQLSADDLKKLKPGLEKDFLPLYFGWFLTKKSSETLRKAGQVFLEELGNHKAFKKELRQFVPGDEPREKMDLVTYFGKRPPGVLHCTTKFCDYGKAPGAEEYAQQDVLKKSYSKAFTLTISALFVTPKTTGARVELSEQQLQLWPSDVDKLSPTDNLPRGSRAHITLGCAADVEAVQTGLDLLEILRQEKGGSRGEEVGELSRGKLYSLGNGRWMLTLAKNMEVRAIFTGYYGKGKPVPTQGSRKGGALQSCTII
- stoichiometry N: 1 CNP:Gag-GST
